Test results published in paper PMC6444592, “Citrullination of HP1γ chromodomain affects association with chromatin” (Epigenetics & Chromatin, 2019).

Target: H3K9me3(1–16) peptide

HP1γ citrullination by PADI4 in the in vitro citrullination assay with added H3K9me3 peptides (immunoblot with anti-peptidyl-citrulline antibody; fold change against unmethylated H3 peptide): 2 fold
Substance: GST-HP1γWT (recombinant full-length mouse heterochromatin protein 1 gamma, wild type) (from UniProt P23198 1-183) (natural protein)
